Literature values as cited in article PMC10775509.
Where two headings read alike, the source gives them in different places.

Legend:
TREM-1 (Mus musculus) [1] = target: TREM-1 (Mus musculus) (UniProt Q9JKE2)
TREM-1 (Mus musculus) [2] = target: TREM-1 (Mus musculus) (UniProt Q9JKE2); remark: listed apart in the source

Sequence of UniProt Q9JKE2 (Q9JKE2 21-230): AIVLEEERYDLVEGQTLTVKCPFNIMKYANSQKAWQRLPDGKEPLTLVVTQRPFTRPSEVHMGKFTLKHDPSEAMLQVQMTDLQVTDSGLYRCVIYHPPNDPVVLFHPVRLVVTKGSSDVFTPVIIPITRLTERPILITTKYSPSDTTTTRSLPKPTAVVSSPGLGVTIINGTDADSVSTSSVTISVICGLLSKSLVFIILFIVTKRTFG

Kd (TREM-1 (Mus musculus) [1]) [µM]	Kd (TREM-1 (Mus musculus) [2]) [µM]	Substance
0.117	–	CIRP (from UniProt P60824)
–	35.4	HMGB1 (from UniProt P63158)
